B1: recombinant protein composed of the two N-terminal RNA Recognition Motifs (RRM) of Half pint (Hfp) (domain or fragment, Drosophila, UniProt Q8T6B9 110-326, looked up)
chain: QQQLATQRTQVQRQQALALMCRVYVGSISFELKEDTIRVAFTPFGPIKSINMSWDPITQKHKGFAFVEYEIPEGAQLALEQMNGALMGGRNIKVGRPSNMPQAQQVIDEVQEEAKSFNRIYVASIHPDLSEEDIKSVFEAFGPILYCKLAQGTSLHTHKGYGFIEYANKQAMDEAIASMNLFDLGGQLLRVGRSITPPNALACPTTNSTMPTAAAVA

What was measured:
[1] = target: the molecule itself; assay: SDS-PAGE and Western blot
[2] = target: T1, Hfp N-terminal RRMs (half pint, PUF60 homolog) (UniProt Q8T6B9 110-326); assay: EMSA
T1 sequence: B1 chain

Binder	stoichiometry N [1]	binding result [2]
B1	2	
UUUUUCUCUU (ssRNA) [Positive control (Drosophila consensus polypyrimidine-rich sequence)]		binds
UCUUCCCCUC (ssRNA) [act57B PT]		binds
UACGUACGUA (ssRNA) [Negative control scramble]		no binding

Reference: publication doi:10.1101/2020.06.30.179986 (bioRxiv, 2020)
